Among the data in the RNAGym collection of RNA variant scans (doi:10.7554/elife.80360) are self-cleavage values, retold here.

To fix the notation:
B1: HDV Ribozyme (parent)
chain: GGCCGGCAUGGUCCCAGCCUCCUCGCUGGCGCCGGCUGGGCAACAUUCCGAGGGGACCGUCCCCUCGGUAAUGGCGAAUGGGACCCA

This series covers variants of B1. As to the kind of experiment: self-cleavage, relative activity (ratio to wild type); higher = more cleavage; co-transcriptional.
Regarding C26A C66U, the self-cleavage worked out at 0.857.

As to G25A G52A, the self-cleavage came to 0.0863. For G25A G52C the value was 0.174; for C26G C49A, 0.95. On to G25A C32A, for which the self-cleavage came to 0.0848. For C26G C61A the value was 1.12; for C26U C57A, 1.22. The value for C26U C57G was 0.932; that for C26G G39C was 0.18. Turning to C26G G39U, the self-cleavage is 0.324. In the case of C26G C57A, the self-cleavage is 0.812. Consider G25U C33A, for which the self-cleavage was 0.156.

In the case of G25U C33U, the self-cleavage is 0.0831. In the case of G25C G81U, the self-cleavage came to 0.151. G25C G81C: the self-cleavage was determined as 0.0449. Take C26G A77C: the self-cleavage amounted to 0.383. In the case of G25C U37A, the self-cleavage came out at 0.0426. For C26A G34A the value was 0.486.

On to G25C A43U, for which the self-cleavage was determined as 0.147. G25C A43G: the self-cleavage stood at 0.

For the variant U27A C75A, the self-cleavage turned out to be 0.147. With C26A C30U, the self-cleavage turned out to be 0.68. For C26A A42U the value was 0.525; for C26G G68A, 0.787.

For G25U C75U, the self-cleavage amounted to 0.162. C24U A78C: the self-cleavage was found to be 0.196.

On to C26G G82A, for which the self-cleavage amounted to 0.813.

Regarding C26U U65G, the self-cleavage came to 1.02.

Regarding C26U U65C, the self-cleavage was 1.07. For G25A C66G the value was 0.376. For the variant U27A C86U, the self-cleavage was found to be 0.966. For G25C C57A, the self-cleavage was 0.166.

In the case of C26A C44G, the self-cleavage came out at 0.712. With C26G G55A, the self-cleavage came out at 0.884. As to G25C U69C, the self-cleavage was 0.175. Turning to C26U C64U, the self-cleavage came to 0.819.

As to U27A G31U, the self-cleavage was 0.244. Regarding G25U C66A, the self-cleavage came to 0.172. In the case of G25U C66U, the self-cleavage turned out to be 0.151. In the case of C24U U65A, the self-cleavage was determined as 0.469.

Take C26A U79G: the self-cleavage came out at 0.875.

With G25U C86U, the self-cleavage was 0.108. In the case of G25U C86A, the self-cleavage worked out at 0.102. As for G25U C86G, the self-cleavage came to 0.256.

For the variant C26A G35U, the self-cleavage came out at 0.619.

As for C26A G35C, the self-cleavage was 0.429. For G25A U65C the value was 0.208; for G25U G55A, 0.201; for C26U C30A, 0.816. The value for C26U C30U was 0.967; that for C26G U65G was 1.09.

G25U G80U: the self-cleavage was found to be 0.115. Consider G25C C32A, for which the self-cleavage was 0.148. Turning to G25A U37G, the self-cleavage came to 0.104. G25C G74U: the self-cleavage was 0.108. For the variant C26U A70G, the self-cleavage is 0.831. Consider C26U A42U, for which the self-cleavage came to 0.682.

For C26G G53C, the self-cleavage was 0.73. With C26G C86A, the self-cleavage amounted to 0.847. As for C26G C85G, the self-cleavage was determined as 0.965. Regarding C26G C85A, the self-cleavage was 1.06. In the case of C26G G67U, the self-cleavage came to 0.665.

For the variant G25C A45G, the self-cleavage was found to be 0.104. Consider U27A A77G, for which the self-cleavage was found to be 1.15. Take U27A C84G: the self-cleavage stood at 0.957. C26G A70C: the self-cleavage is 0.957. In the case of U27A A43C, the self-cleavage turned out to be 0.0723. U27A A43U: the self-cleavage stood at 0.401.

For the variant U27A C33G, the self-cleavage was found to be 0.287. For C26A U69A, the self-cleavage is 0.985. The value for G25A G29A was 0.0567; that for C26A G38U was 0.208. Consider C24U C41G, for which the self-cleavage is 0.437. C24U C41U: the self-cleavage turned out to be 0.616. Turning to C26U G73C, the self-cleavage came to 0.492. With G25C C49A, the self-cleavage amounted to 0.0594. For the variant C26G G59U, the self-cleavage was 0.831. Turning to C24U G38A, the self-cleavage amounted to 0.0863. As to G25C C63G, the self-cleavage came to 0.0875. For C26G C41G, the self-cleavage amounted to 0.739. The value for C26G C41U was 0.76; that for G25A G73C was 0.113; that for G25U G34C was 0.0396.

Regarding G25U G34A, the self-cleavage was 0.0573. Take G25U U60C: the self-cleavage is 0.0475.

G25U U60A: the self-cleavage was found to be 0.237. The value for G25U A42G was 0.119. The value for G25U G68A was 0.0923.

As for G25U A45U, the self-cleavage stood at 0.172.

For the variant U27A G40C, the self-cleavage amounted to 0.151. As to C24U G73C, the self-cleavage was found to be 0.0773. With U27A G55C, the self-cleavage came to 0.864. Regarding C26U C75G, the self-cleavage turned out to be 0.287. As to C26U C75U, the self-cleavage was found to be 0.113.

In the case of C24U G74U, the self-cleavage is 0.143. For G25C G35A the value was 0.0346. Turning to C24U U79A, the self-cleavage turned out to be 0.208. As to G25C C58G, the self-cleavage worked out at 0.161. Regarding U27A G50C, the self-cleavage came out at 0.656.

In the case of U27A G50A, the self-cleavage was found to be 0.967. Regarding U27A G67U, the self-cleavage stood at 0.799. With G25U G35C, the self-cleavage came out at 0.0707. Take U27A C49U: the self-cleavage worked out at 0.88. C26A: the self-cleavage turned out to be 1.01. Consider C26U, for which the self-cleavage stood at 1.02. In the case of C26G, the self-cleavage came to 0.952. For G25A A87G the value was 0.163. As for G25A A87U, the self-cleavage was determined as 0.277. On to G25C G80A, for which the self-cleavage was determined as 0.0744. Take U27A A70G: the self-cleavage is 0.987.

For U27A C48U, the self-cleavage is 0.95. Turning to G25C G53A, the self-cleavage amounted to 0. The value for G25C G53U was 0.193. Regarding G25C G53C, the self-cleavage turned out to be 0.356. As for C26U U47G, the self-cleavage was determined as 0.877.

For the variant C24U C84U, the self-cleavage stood at 0.53. Turning to C26U U37C, the self-cleavage was 1.34. With C26U U37G, the self-cleavage is 0.346.

For the variant G25U A78G, the self-cleavage came out at 0.185. On to G25U A78C, for which the self-cleavage came out at 0.0665. For G25U A78U the value was 0.0831; for G25C U65G, 0.0875; for C26A C48G, 1.07. As for C26A C48A, the self-cleavage was found to be 0.941.

On to G25U C64A, for which the self-cleavage is 0.151. The value for G25C G68A was 0.227. As to C26U A77U, the self-cleavage was determined as 0.641. Take C26U A77G: the self-cleavage was determined as 0.872. As for G25C G54C, the self-cleavage came to 0.138. Consider C26A U72G, for which the self-cleavage turned out to be 0.657. The value for G25C U47A was 0.0639. For G25C G31U the value was 0.214; for C26A A78G, 0.831; for U27A A83U, 0.88.

On to U27A A83G, for which the self-cleavage was 0.723. In the case of G25U A87C, the self-cleavage was 0.0755.

G25U A87U: the self-cleavage came to 0.109.

Regarding G25C C36A, the self-cleavage worked out at 0.128.

Consider G25C C36G, for which the self-cleavage is 0.0519.

Turning to G25C G82A, the self-cleavage came out at 0.0361. Consider G25C U60G, for which the self-cleavage was found to be 0.101.

Take C24U G35C: the self-cleavage is 0.0339. C24U G35U: the self-cleavage stood at 0.131. Take C24U G35A: the self-cleavage is 0.372. Turning to U27A G54C, the self-cleavage was 0.707.

On to G25U U47G, for which the self-cleavage was 0.0692. For the variant G25C G55A, the self-cleavage was determined as 0.158. For the variant G25C A71G, the self-cleavage worked out at 0.131. For C26A G29U the value was 0.032; for C26A G29A, 0.13; for G25A G31C, 0.0739. Consider U27A C36G, for which the self-cleavage came to 0.298. The value for G25U G67A was 0.227; that for G25A U47G was 0.32. G25A U47A: the self-cleavage was found to be 0.0831. In the case of G25A G39A, the self-cleavage worked out at 0.172. With G25U U79C, the self-cleavage worked out at 0.115. The value for C26G G34A was 0.54; that for C26U G34A was 0.36. On to C26U G67A, for which the self-cleavage came to 0.947. For C26U G67C, the self-cleavage is 1.12. On to G25U G54C, for which the self-cleavage is 0.122.

In the case of C26U G76C, the self-cleavage worked out at 0.87.

As for C26U C85A, the self-cleavage is 0.96. Regarding C26A A70G, the self-cleavage was 1.11. C26A A70C: the self-cleavage is 1.01. Take C26G C84A: the self-cleavage was 1.09.
